Measurements: patent US20220387578A1

How the values were obtained:
Test in all cases: ELISA
[1] = target: H1 HA A/Solomon Islands/03/2006 (H1N1), recombinant soluble trimer (influenza A virus)
[2] = target: H1 HA A/Texas/36/1991 (H1N1), recombinant soluble trimer (influenza A virus)
[3] = target: H3 HA A/Texas/50/2012, recombinant soluble trimer (influenza A virus)

Measured: EC50 relative to wild type rFluA-20

B1: rFluA-20 heavy chain mutant Y100aA (antibody, V domains shown)
VH: QVQLQESGPGLVKPSETLSLTCSVSGVSVTSDIYYWTWIRQPPGKGLEWIGYIFYNGDTNYNPSLKSRVTMSIDTSKNEFSLRLTSVTAADTAVYFCARGTEDLGACSSGSCPNHWGQGTLVTVSS
VL: DIQMTQSPSSLSASIGDRVTITCRPSQNIRSFLNWFQHKPGKAPKLLIYAASNLQSGVPSRFSGSGSGTEFTLTIRSLQPEDFATYYCQQSYNTPPTFGQGTKVEIK
> 100 fold: all assays above
